Experimental data from patent publication US7851180B2, “Microorganism producing L-methionine precursor and the method of producing L-methionine precursor using the microorganism” (CJ Cheiljedang Corporation, priority 2008, dated 2010).

Tests used:
[1] = tested on: homoserine O-succinyltransferase (metA); experiment: Feed back resistance of mutant metA in the presence of 100 mM methionine; type: biochemical, Escherichia coli; details: w/ 100 mM Met; control without Met = 100
Description: To increase production of O-succinylhomoserine which is L-methionine precursor, overexpression of feed-back resistant metA gene encoding homoserine O-succinyltransferase was performed. PCT/US2007/009146 discloses the method for preparing feed-back resistant metA gene and activity of that.
The sequence of the feed-back resistant metA 10 gene is represented in SEQ. ID. NO: 13 and the amino acid sequence encoding by the gene is represented in SEQ. ID. NO: 14. The sequence of metA 11 gene is represented in SEQ. ID. NO: 15 and the amino acid sequence encoding by the gene is represented in SEQ. ID. NO: 16. The sequence of metA 32 gene is represented in SEQ. ID. NO: 17 and the amino acid sequence encoding by the gene is represented in SEQ. ID. NO: 18. The sequence of metA 37 gene is represented in SEQ. ID. NO: 19 and the amino acid sequence encoding by the gene is represented in SEQ. ID. NO: 20. The sequence of metA 41 gene is represented in SEQ. ID. NO: 21 and the amino acid sequence encoding by the gene is represented in SEQ. ID. NO: 22 (PCT/US2007/009146).

W3-BTJA strain = experiment: O-succinylhomoserine production of feed back resistant metA in W3-BTJA strain, Erlenmeyer flask culture; type: cell-based, E. coli; details: for O-succinylhomoserine production (%): metA plasmid in W3-BTJA strain, flask culture 64 hours, HPLC, wild type = 100%; for O-succinylhomoserine production compared with wild type: metA vector in W3-BTJA strain, flask culture
Description: The vector was electroporated into W3-BTJA strain and production capacity of the strain was checked using Erlenmeyer flask culture as described in Example 2-1, O-succinylhomoserine production of modified strain is measured, based on 100% of O-succinylhomoserine production of wild type strain.
To measure the methionine precursor production of each strain constructed in Example 1, Erlenmeyer flask culture was performed. Each strain was cultured on LB plate media at 31° C. for overnight. A single colony was inoculated in 3 ml of LB medium, followed by culture at 31° C. for 5 hours. The culture solution was 200 fold diluted in 250 ml Erlenmeyer flask containing 25 ml of methionine precursor producing medium, followed by culture at 31° C., 200 rpm for 64 hours. HPLC was performed to compare with methionine precursor production capacity (Table 2 and Table 3).

Row | Molecule | % of specific activity retention [1] | O-succinylhomoserine production (%) (W3-BTJA strain) | O-succinylhomoserine production compared with wild type (W3-BTJA strain)
1 | #11: feed-back resistant metA 11 gene product, amino acid sequence SEQ. ID. NO: 16 (protein, listed as Escherichia coli) MPIRVPDELPAVNFLREENVFVMSTSRASGQEIRPLKVLILNLMPKKIETENQFLRLLSNSPLQVDIQLLRIDSRESRNTPAEHLNNFYCNFEDIQDQNFDGLIVTGAPLGLVEFNDVAYWPQIKQVLEWSKDHVTSTLFVCWAVQAALNILYGIPKQTRTEKLSGVYEHHILHPHALLTRGFDDSFLAPHSRYADFPAALIRDYTDLEILAETEEGDAYLFASKDKRIAFVTGHPEYDAQTLAQEFFRDVEAGLDPDVPYNYFPHNDPQNTPRESWRSHGNLLFTNWLNYYVYQIAPYDLRHMYPTLD | 94% | 425% | the most effective production
2 | #41: feed-back resistant metA 41 gene product, amino acid sequence SEQ. ID. NO: 22 (protein, listed as Escherichia coli) MPIRVPDELPAVNFLREENVFVMTTSRASGQEIRPLKVLILNLMPKKIETENQFLRLLSNSPLQVDIQLLRIDSRESRSTPAEHLNNFYCNFEDIQDQNFDGLIVTGAPLGLVEFNDVAYWPQIKQVLEWSKDHVTSTLIVCWAVQAALNILYGIPKQTRTEKLSGVYEHHILHPHALLTRGFDDSFLAPHSRYADFPAALIRDYTDLEILAETEEGDAYLFASKDKRIAFVTGHPEYDAQTLAQEFFRDVEAGLDPDVPYNYFPHNDPQNTPRASWRSHGNLLFTNWLNNYVYQITPYDLRHLNPTLD | 74% | 389% | –
3 | #32: feed-back resistant metA 32 gene product, amino acid sequence SEQ. ID. NO: 18 (protein, listed as Escherichia coli) MPIRVPDELPAVNFLREENVFVMTTSRASGQEIRPLKVLILNLMPKKIETENQFLRLLSNSPLQVDIQLLRIDSRESRNTPAEHLNNFYCNFEDIQDQNFDGLIVTGAPLGLVEFNDVAYWPQIKQVLEWSKDHVTSTLFVCWAVQAALNILYGIPKQTRTEKLSGVYEHHILHPHALLTRGFDDSFLAPHSRYADFPAALIRDYTDLEILAETEEGDAYLFASKDKRIAFVTGHPEYDAQTLAQEFFRDVEAGLDPDVPYNYFPHNDPQNTPRASWRSHGNLLFTNWLHYYVYQITPYDLRHMNPTLD | 79% | 396% | the most effective production
4 | #10: feed-back resistant metA 10 gene product, amino acid sequence SEQ. ID. NO: 14 (protein, listed as Escherichia coli) MPIRVPDELPAVNFLREENVFVMTTSRASGQEIRPLKVLILNLMPKKIETENQFLRLLSNSPLQVDIQLLRIDSRESRNTPAEHLNNFYCNFEDIQDQNFDGLIVTGAPLGLVEFNDVAYWPQIKQVLEWSKDHVTSTLFVCWAVQAALNILYGIPKQTRTEQLSGVYEHHILHPHALLTRGFDDSFLAPHSRYADFPAALIRDYTDLEILAETEEGDAYLLASKDKRIAFVTGHPEYDAQTLAQEFFRDVEAGLDPDVPYNYFPHNDPQNTPRASWRSHGNLLFTNWLNYYVYRITPYDLRHMNPTLD | 97% | 392% | the most effective production
5 | #37: feed-back resistant metA 37 gene product, amino acid sequence SEQ. ID. NO: 20 (protein, listed as Escherichia coli) MPIRVPDELPAVNFLREENVFVMTTSRAPGQEIRPLKVLILNLMPKKIETENQFLRLLSNSPLQVDIQLLRIDSRESRNTPAEHLNNFYCNFEDIQDQNFDGLIVTGAPLGLVGFNDVAYWPQIKQVLEWSKDHVTSTLSVCWAVQAALNILYGIPKQTRTEKLSGVYEHHILHPHALLTRGFDDSFLAPHSRYADFPAALIRDYTDLEILAETEEGDAYLFASKDKRIAFVTGHPEYDAQTLAQEFFRDVEAGLDPDVPYNYFPHNDPQNTPRASWRSHGNLLFTNWLNYYVYQITPYDLRHMNPTLD | 83% | 227% | –
6 | w.t.: wild type metA, homoserine O-succinyltransferase of E. coli (protein, UniProt P07623 2-309, looked up) Homoserine …: PIRVPDELPAVNFLREENVFVMTTSRASGQEIRPLKVLILNLMPKKIETENQFLRLLSNSPLQVDIQLLRIDSRESRNTPAEHLNNFYCNFEDIQDQNFDGLIVTGAPLGLVEFNDVAYWPQIKQVLEWSKDHVTSTLFVCWAVQAALNILYGIPKQTRTEKLSGVYEHHILHPHALLTRGFDDSFLAPHSRYADFPAALIRDYTDLEILAETEEGDAYLFASKDKRIAFVTGHPEYDAQTLAQEFFRDVEAGLDPDVPYNYFPHNDPQNTPRASWRSHGNLLFTNWLNYYVYQITPYDLRHMNPTLD | 7.6% | 100% | –
